This data set concerns the molecule itself. Description: cryo-EM structure.

B1: GFP-HCN4ΔC (rabbit HCN4 carrying an internal deletion from residues 783 to 1064, with N-terminal decahistidine-eGFP tag) (natural protein)
chain: MDKLPPSMRKRLYSLPQQVGAKAWIMDEEEDAEEEGAGGRQDPRRRSIRLRPLPSPSPSPSAAAAAAGGAESRGAALGGAADGEGPARGAAKSSTNGDCRRFRGSLASLGSRGGGGGGGSTGGGSHGHLHDSAEERRLIAEGDASPGEDRTPPGLAAEPERPGAPAPPAASPPQVPSSCGEQRPADAAVKVEGGAAAGDQILPEAEARLGQAGFMQRQFGAMLQPGVNKFSLRMFGSQKAVEREQERVKSAGFWIIHPYSDFRFYWDLTMLLLMVGNLIIIPVGITFFKDENTTPWIVFNVVSDTFFLIDLVLNFRTGIVVEDNTDIILDPRRIKMKYLKSWFVVDFVSSIPVDYIFLIVETRIDSEVYKTARALRIVRFTKILSLLRLLRLSRLIRYIHQWEEIFHMTYDLASAVVRIVNLIGMMLLLCHWDGCLQFLVPMLQDFPDDCWVSLNNMVNNSWGKQYSYALFKAMSHMLCIGYGRQAPMGMSDVWLTMLSMIVGATCYAMFIGHATALIQSLDSSRRQYQEKYKQVEQYMSFHKLPPDTRQRIHDYYEHRYQGKMFDEESILGELSEPLREEIINFNCRKLVASMPLFANADPNFVTSMLTKLRFEVFQPGDYIIREGTIGKKMYFIQHGVVSVLTKGNKETKLADGSYFGEICLLTRGRRTASVRADTYCRLYSLSVDNFNEVLEEYPMMRRAFETVALDRLDRIGKKNSILLHKVQHDLSSGVSNYQENAIVQRIVQHDREMAHCARRAQATTPVAPAIWTPLIQAPLQAAQDLKLISASQPALPQDGAQTLRRASPHSSSGESVAALPPFPRAPGRPPGAGPGQHVTLTLPRKASSGSLPPPLSLFGPRAAPAGGPRLTAAPQREPGAKSEPVRSKLPSNL
In the case of B1, the “stoichiometry N” value was 4.

As a reminder, the stoichiometry N is the number of molecules, sites or subunits per partner or assembly.

For the origin of these results see publication PMC8294335 (Molecular Cell, 2021).
